What all share (assay): cleavage_in_vitro
Data set [1] deals with T1, OMNI-134 (metagenomic, unknown).
T1 sequence: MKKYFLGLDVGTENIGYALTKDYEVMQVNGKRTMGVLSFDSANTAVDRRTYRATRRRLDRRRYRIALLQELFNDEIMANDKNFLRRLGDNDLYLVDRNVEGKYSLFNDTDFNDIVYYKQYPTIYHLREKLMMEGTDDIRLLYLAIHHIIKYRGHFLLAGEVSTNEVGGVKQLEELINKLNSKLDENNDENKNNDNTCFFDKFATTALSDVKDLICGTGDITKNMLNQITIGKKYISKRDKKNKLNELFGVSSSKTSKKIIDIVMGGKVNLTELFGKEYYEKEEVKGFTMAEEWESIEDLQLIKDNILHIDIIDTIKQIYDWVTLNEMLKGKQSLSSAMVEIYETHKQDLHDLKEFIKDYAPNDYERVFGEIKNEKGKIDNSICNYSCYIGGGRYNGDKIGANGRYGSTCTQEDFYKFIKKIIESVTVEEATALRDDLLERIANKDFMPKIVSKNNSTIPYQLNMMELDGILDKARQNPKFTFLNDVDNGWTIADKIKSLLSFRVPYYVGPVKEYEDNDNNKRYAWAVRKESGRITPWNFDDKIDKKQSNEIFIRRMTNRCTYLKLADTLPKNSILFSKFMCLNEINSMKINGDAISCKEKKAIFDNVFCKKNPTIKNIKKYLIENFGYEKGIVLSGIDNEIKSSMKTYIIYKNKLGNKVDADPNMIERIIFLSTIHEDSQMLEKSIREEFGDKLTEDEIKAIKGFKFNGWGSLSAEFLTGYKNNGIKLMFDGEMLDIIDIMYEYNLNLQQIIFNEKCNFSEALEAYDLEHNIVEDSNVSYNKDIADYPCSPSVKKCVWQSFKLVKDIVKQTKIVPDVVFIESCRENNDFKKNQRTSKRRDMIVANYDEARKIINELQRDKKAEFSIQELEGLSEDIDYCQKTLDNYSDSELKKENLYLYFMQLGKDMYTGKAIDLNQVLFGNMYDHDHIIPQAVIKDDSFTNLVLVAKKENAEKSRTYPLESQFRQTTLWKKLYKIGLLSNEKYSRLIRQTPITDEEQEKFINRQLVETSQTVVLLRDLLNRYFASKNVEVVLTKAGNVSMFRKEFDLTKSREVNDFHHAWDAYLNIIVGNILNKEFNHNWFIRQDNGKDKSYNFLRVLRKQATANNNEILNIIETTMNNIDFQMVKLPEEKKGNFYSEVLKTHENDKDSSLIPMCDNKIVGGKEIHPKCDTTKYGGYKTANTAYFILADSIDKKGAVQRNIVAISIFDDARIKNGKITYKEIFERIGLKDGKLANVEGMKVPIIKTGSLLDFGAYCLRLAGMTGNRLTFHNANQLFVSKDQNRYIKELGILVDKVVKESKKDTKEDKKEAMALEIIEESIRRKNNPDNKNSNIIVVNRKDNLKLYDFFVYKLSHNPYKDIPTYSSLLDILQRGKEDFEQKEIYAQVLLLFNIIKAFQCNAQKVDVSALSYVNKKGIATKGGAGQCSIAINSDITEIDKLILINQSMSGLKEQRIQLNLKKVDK
To be noted: TXTL; PAM NRAANYNN

For data set [2], the system named is T2, OMNI-107 (metagenomic, unknown).
T2 sequence: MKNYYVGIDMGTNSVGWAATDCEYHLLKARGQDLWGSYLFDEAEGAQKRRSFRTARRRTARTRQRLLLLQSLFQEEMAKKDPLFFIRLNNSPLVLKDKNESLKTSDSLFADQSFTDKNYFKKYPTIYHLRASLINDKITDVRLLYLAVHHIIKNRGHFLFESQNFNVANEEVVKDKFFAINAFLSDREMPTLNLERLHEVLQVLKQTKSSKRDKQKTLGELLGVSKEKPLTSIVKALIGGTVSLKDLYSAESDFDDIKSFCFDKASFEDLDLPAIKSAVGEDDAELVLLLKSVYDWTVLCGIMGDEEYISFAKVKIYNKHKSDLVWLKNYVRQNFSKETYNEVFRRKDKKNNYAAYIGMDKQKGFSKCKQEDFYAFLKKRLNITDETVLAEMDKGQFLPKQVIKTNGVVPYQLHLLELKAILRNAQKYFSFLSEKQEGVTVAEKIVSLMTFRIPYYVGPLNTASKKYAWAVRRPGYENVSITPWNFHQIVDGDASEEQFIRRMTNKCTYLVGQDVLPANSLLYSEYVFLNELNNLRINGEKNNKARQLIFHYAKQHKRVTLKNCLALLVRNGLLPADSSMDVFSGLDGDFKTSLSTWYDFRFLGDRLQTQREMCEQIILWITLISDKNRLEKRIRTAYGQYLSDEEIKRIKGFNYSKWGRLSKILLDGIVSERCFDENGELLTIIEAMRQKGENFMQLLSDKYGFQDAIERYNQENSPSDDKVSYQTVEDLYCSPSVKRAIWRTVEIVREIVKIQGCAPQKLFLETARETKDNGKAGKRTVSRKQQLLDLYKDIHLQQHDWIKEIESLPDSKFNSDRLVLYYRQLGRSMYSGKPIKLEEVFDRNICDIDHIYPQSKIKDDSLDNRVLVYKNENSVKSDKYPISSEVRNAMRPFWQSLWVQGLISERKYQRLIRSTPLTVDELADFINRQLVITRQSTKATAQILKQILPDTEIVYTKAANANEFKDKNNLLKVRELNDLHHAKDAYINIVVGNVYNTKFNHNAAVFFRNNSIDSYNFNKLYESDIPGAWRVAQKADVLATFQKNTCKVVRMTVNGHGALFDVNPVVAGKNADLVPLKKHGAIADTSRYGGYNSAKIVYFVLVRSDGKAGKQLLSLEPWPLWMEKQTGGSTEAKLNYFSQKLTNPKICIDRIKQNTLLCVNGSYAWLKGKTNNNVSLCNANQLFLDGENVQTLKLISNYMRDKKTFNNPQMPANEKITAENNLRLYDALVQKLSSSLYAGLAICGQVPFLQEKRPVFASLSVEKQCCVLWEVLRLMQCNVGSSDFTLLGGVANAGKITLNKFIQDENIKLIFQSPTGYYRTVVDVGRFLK
To be noted: TXTL; PAM NNNAANNN

In data set [3] the test system is T3, OMNI-97 (metagenomic, unknown).
T3 sequence: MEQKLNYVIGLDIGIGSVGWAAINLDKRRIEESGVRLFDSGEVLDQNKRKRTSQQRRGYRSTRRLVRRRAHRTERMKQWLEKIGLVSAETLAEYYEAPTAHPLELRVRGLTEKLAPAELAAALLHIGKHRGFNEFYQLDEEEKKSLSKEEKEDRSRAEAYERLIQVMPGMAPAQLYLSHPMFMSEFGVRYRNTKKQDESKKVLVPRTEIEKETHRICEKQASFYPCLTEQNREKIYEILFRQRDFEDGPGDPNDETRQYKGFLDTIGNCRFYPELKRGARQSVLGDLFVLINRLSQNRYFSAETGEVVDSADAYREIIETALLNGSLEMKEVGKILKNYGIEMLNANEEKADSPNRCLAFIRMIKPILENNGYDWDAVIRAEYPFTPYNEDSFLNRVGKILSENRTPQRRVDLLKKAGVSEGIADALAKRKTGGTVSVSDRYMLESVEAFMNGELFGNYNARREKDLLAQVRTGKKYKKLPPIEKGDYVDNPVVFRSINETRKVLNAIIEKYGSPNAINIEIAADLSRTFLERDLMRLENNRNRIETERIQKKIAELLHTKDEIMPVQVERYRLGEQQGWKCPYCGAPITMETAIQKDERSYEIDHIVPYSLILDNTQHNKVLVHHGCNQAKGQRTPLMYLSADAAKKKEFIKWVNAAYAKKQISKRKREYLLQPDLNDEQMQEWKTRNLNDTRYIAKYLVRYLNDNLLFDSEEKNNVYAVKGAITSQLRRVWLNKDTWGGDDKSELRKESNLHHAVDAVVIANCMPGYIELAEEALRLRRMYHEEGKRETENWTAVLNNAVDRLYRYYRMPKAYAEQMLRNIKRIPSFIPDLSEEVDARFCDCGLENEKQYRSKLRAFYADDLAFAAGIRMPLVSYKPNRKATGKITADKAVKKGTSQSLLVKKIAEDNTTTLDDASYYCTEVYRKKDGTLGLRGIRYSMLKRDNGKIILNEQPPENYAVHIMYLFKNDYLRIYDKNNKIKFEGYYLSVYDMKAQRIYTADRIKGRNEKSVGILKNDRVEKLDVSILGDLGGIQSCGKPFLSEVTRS
The conditions noted are these: TXTL; PAM NNRCCANN

In data set [1], “GGAAGAGCAGAGCCUUGGUCUCGUUUGAGAGUAUUGUUGAAAAACAAUCGUUCAAAUAAGGUUUUACCUUAAGCAUCCUAUUGGAUCAGUCGACUAAUCAGAGUCGACUAUUUUUU / GGAAGAGCAGAGCCTTGGTCTCNNNNNNNN / NNNNNNNNGAGACCAAGGCTCTGCTCTTCC [T2 sgRNA 19 V1 ; T2 protospacer + 8N PAM library (pbPOS T2)]” registered an activity (1-depletion score) of 0.98.

As for “GGAAGAGCAGAGCCUUGGUCUCGUUUGAGUAUGGUGUUAGAAAUAACACCAUUAGUUCAAAUAAGAUUUUUUCAAAUCGCCGAUUUUUCGGUAGUACACGAUGUGUACAUUGGAUCUGUUGCAAGACAGGUCCUUUUUUU / GGAAGAGCAGAGCCTTGGTCTCNNNNNNNN / NNNNNNNNGAGACCAAGGCTCTGCTCTTCC [T2 sgRNA 16 V1 ; T2 protospacer + 8N PAM library (pbPOS T2)]”, the activity (1-depletion score) in data set [2] was 0.7.

“GGAAGAGCAGAGCCUUGGUCUCGUUAUUUUGAAUACUAGAAAGUGUAUUUAAAGUAAAUAAAAAGUUAAAUUUAAAGAUAAAAGUAAAUAAUUAGUAAAUUAACUUCUGAUAAUGUGAAAUUCAUUUGUUUUUU / GGAAGAGCAGAGCCTTGGTCTCNNNNNNNN / NNNNNNNNGAGACCAAGGCTCTGCTCTTCC [T2 sgRNA 39 V1 ; T2 protospacer + 8N PAM library (pbPOS T2)]” gave an activity (1-depletion score) in data set [1] of 0.99.

On to “GGAAGAGCAGAGCCUUGGUCUCGUUUGAGAGUAUUGUUAUUGAAAAAUAACAAUCGUUCAAAUAAGGUUUUACCUUAAGCAUCCUAUUGGAUCAGUCGACUAACCAGAGUCGACUAUUUUUU / GGAAGAGCAGAGCCTTGGTCTCNNNNNNNN / NNNNNNNNGAGACCAAGGCTCTGCTCTTCC [T2 sgRNA 34 V1 ; T2 protospacer + 8N PAM library (pbPOS T2)]”, for which, in data set [1], the activity (1-depletion score) came out at 0.94.

“GGAAGAGCAGAGCCUUGGUCUCGUUUGAGUAUGGUGUUAGAAAUAACACCAUUAGUUCAAAUAAGAUUUUUUCAAAUCGCCGAUUUUUCGGUAGUACACGAUGUGUACAUUUUUU / GGAAGAGCAGAGCCTTGGTCTCNNNNNNNN / NNNNNNNNGAGACCAAGGCTCTGCTCTTCC [T2 sgRNA 16 V3 ; T2 protospacer + 8N PAM library (pbPOS T2)]”: in data set [2], the activity (1-depletion score) turned out to be 0.83.

The sequence “GGAAGAGCAGAGCCUUGGUCUCGUUUUGGGCCUCUGAUGGGAAACCAUCAGAGACCUGAGAUAAGGCUUUAUGCCGUAGGGUAUGGCGGUAACCCGGAGUAUUCCGAAUCCGCUUUUUCUUUGCCUGUAAAUACAGUAUAACAUAUUAUUUCGUCCUUUUUU / GGAAGAGCAGAGCCTTGGTCTCNNNNNNNN / NNNNNNNNGAGACCAAGGCTCTGCTCTTCC [T2 sgRNA 8 V1 ; T2 protospacer + 8N PAM library (pbPOS T2)]” displayed an activity (1-depletion score) in data set [3] of 0.93.

“GGAAGAGCAGAGCCUUGGUCUCGUUUUGGGCCUCUGAUGGGAAACCAUCAGAGACCUGAGAUAAGGCUUUAUGCCGUAGGGUAUGGCGGUAACCCGGAGUAUUCCGAAUCCGCUUUUUUU / GGAAGAGCAGAGCCTTGGTCTCNNNNNNNN / NNNNNNNNGAGACCAAGGCTCTGCTCTTCC [T2 sgRNA 8 V3 ; T2 protospacer + 8N PAM library (pbPOS T2)]” gave an activity (1-depletion score) in data set [3] of 0.97.

The values are drawn from US20240425885.
